Source: the supplement of paper PMC12042874
± gives the uncertainty stated by the source.

Assay: amyloid nucleation score (Sup35N fusion, yeast selection) (log enrichment); library NNK1; higher = more nucleation; inactive = no reads after selection
Procedure, shortened: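 Psi-negative yeast expressed Sup35N fused to peptides of 20 random codons. They were induced 24 hours with 100 μM copper sulfate, grown 7 days at 30°C without adenine and uracil, and their plasmid inserts from input and output were Illumina-sequenced. The nucleation score is the DiMSum log enrichment of output over input reads, centred on the mode score of non-aggregating sequences. Sequences with under 100 input reads were excluded.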

Substance	amyloid nucleation score
YRRDYGPKSVDWRPYVVEVR	0.359 ± 0.64
YRVNWFYMQRCAIP	-0.269 ± 0.86
YSAITNGSFQVLV	0.17 ± 0.21
YSAVISHDVGLFVYLTETET	-0.363 ± 0.56
YSCCRVFMCARWLRVTCNMS	0.189 ± 0.31
YSDWHI	-0.511 ± 0.91
YSEWRSSHNRFMSRPLSTPR	-0.992 ± 0.55
YSFLNYLLTRFDIIFLAAED	inactive
YSGHWPWMQ	-1.17 ± 0.74
YSITIRITEYNGVVSTGLHL	0.325 ± 0.6
YSNLSCSQTDVRSLR	0.494 ± 0.49
YSRSGRTTNLAPNLHLRTMS	0.136 ± 1.2
YSTRPKVPFVRKVFIIGL	0.174 ± 0.43
YSVLCIMRTLHAEIWFTGGI	-0.023 ± 1.4
YSYAGSLMAWSRKVHMHTEV	-0.19 ± 0.57
YTANYGILVFAVC	-0.702 ± 1.4
YTFLYSPTHCPRENHPNSVL	0.211 ± 0.61
YTGKRKT	-0.5 ± 0.46
YTHGG	inactive
YTRFN	-1.66 ± 1.6
YTRFVKGYTRNRFSRDTSAV	-0.084 ± 0.28
YTRRVTNDVNNFGTFTRMSS	1.02 ± 0.27
YTSDKGKLYCGLMMG	-0.045 ± 0.59
YTYDLYVTSVLNVSRESSHC	-0.343 ± 1.4
YVAFEKTL	inactive
YVDLFIMPIACGTSVMHLNL	5.464 ± 0.047
YVEPSF	-0.083 ± 0.97
YVEQYLWDSDWSSGI	0.974 ± 0.14

Substance	amyloid nucleation score
YVFRPLVERDRSLMKLVQQL	inactive
YVGADMELHSRMVTDTYFAS	-0.707 ± 1.1
YVGRNLWK	0.402 ± 0.47
YVIEIMISHVPAIWRGYTCS	0.554 ± 0.71
YVLKCKNILMYEYLNEVKIS	0.219 ± 0.27
YVLYCICV	5.95 ± 0.073
YVMAVI	1.64 ± 0.5
YVMSS	-0.369 ± 0.41
YVQLI	-0.256 ± 0.39
YVSAGWVYRSYFGIIFILRN	-0.873 ± 1.1
YVSEEMNGLVMYQSNWGSVT	0.224 ± 0.54
YVSYDQTNSAAYYVRVRLRF	0.947 ± 0.73
YVVCRTFSVPAYSLRLQLRR	0.353 ± 0.26
YVYDSVAVHGGKTLEGEGYG	0.035 ± 0.38
YVYSYLGGARGCVFKEKDPP	0.586 ± 0.47
YWCMLARSLDDEGLFWRTGG	-0.38 ± 0.33
YWGPKDAMGMSFIVSWDGPP	0.367 ± 0.31
YWSFGGWVAQRVCMESVFVK	-2.27 ± 1.6
YWVWYDVYGSWLGSWYYKRG	0.278 ± 0.52
YWVYSSRGCA	inactive
YWWRWSVSI	0.386 ± 0.33
YYAHSGMWYAMSDQKGAVG	0.552 ± 0.67
YYCTQRLNSHSVLMSLADRW	0.035 ± 0.76
YYDFGIIRSCVFSNGCVGMY	1.62 ± 0.8
YYDTEGIHHSSIQRCQIRAG	1.16 ± 0.58
YYQRGVDYNIVFLRT	1.16 ± 0.52
YYVMRYDASLYDKRKERVFG	0.851 ± 0.39
